We go through one molecule from US10358467B2, “Therapeutic targets for cancer progression” (The Regents of the University of California, priority 2015, dated 2019).

What all share (format): cell-based
For experiment [1], the system named is cAMP levels in HeLa cells. Put plainly: Measurement of cAMP by radioimmunoassay in HeLa cells. The procedure:
HeLa cells were transfected with DAPLE-WT or DAPLE-FA, serum starved (0.2% FBS, 16 h) and incubated with isobutylmethylxanthine (IBMX, 200 μM, 20 min) followed by Wnt5a stimulation (100 ng/ml, 20 min) and Forskolin (10 uM, 10 min). To stop the reaction, cell medium was replaced with 150 μl of ice-cold TCA 7.5% (w/v). cAMP content in TCA extracts was determined by radioimmunoassay (MA) and normalized. To the amount of protein [(determined using a dyebinding protein assay (Bio-Rad)] per sample as previously described (Ostrom et al, 2001).

Experiment [2] concerns Gi heterotrimer (Gαi1-YFP, CFP-Gβ1, Gγ2). Put plainly: FRET between Gαi1-YFP and CFP-Gβ1 (Gi activation) in living HeLa cells. The procedure:
(§1) Förster Resonance Energy Transfer (FRET) experiments were performed using the classical ECFP- and EYFP-tagged proteins as donor and acceptor FRET-probe pairs, respectively. Previously validated and published FZD7-CFP construct was a generous gift from Carl-Philip Heisenberg (Witzel et al, 2006). Previously validated Gαi3-YFP and Gαi1-YFP (internally tagged Gαi subunits) and CFP-Gβ1 were generous gifts from Moritz Bunemann (Bunemann et al, 2003; Gibson & Gilman, 2006). Interaction of FZD7-CFP and Gαi3-YFP proteins was studied in HEK293T cells using a Leica inverted laser scanning confocal microscope. […] Loss of FRET upon Gi activation and heterotrimer dissociation was measured between Gαi1-YFP and CFP-Gβ1 proteins co-expressed in living HeLa cells using Olympus FV1000 inverted confocal laser scanning microscope equipped with a 60× 1.49 N.A oil immersed objective designed to minimize chromatic aberration and enhance resolution for 405-605 nm imaging as described previously (Midde et al, 2015). […] FRET efficiency was calculated on a pixel by pixel basis from ratiometric images obtained in individual channels (donor, acceptor and FRET) through a RiFRET plugin in Image J software (Roszik et al, 2009). […]

The next experiment deals with FZD7R-Gαi3 complexes. Put plainly: FRET between FZD7R-CFP and Gαi3-YFP in HEK293 cells. Conditions: plasma membrane, within 5 min; starved cells 0.04±0.01. Here is the method: as §1

B1: Wnt5a: recombinant Wnt5a purified from CHO conditioned media (protein, UniProt P41221 62-380, looked up)
Protein Wnt-5a: IIGAQPLCSQLAGLSQGQKKLCHLYQDHMQYIGEGAKTGIKECQYQFRHRRWNCSTVDNTSVFGRVMQIGSRETAFTYAVSAAGVVNAMSRACREGELSTCGCSRAARPKDLPRDWLWGGCGDNIDYGYRFAKEFVDARERERIHAKGSYESARILMNLHNNEAGRRTVYNLADVACKCHGVSGSCSLKTCWLQLADFRKVGDALKEKYDSAAAMRLNSRGKLVQVNSRFNSPTTQDLVYIDPSPDYCVRNESTGSLGTQGRLCNKTSEGMDGCELMCCGRGYDQFKTVQTERCHCKFHWCCYVKCKKCTEIVDQFVCK
B1: the “suppression of cAMP levels” value is recorded as “no such suppression” in experiment [1] (HeLa cells expressing DAPLE-FA) and around 50% in experiment [1] (HeLa cells expressing DAPLE-WT, Wnt5a 100 ng/ml 20 min). For the same molecule, the “drop in FRET after Wnt5a stimulation” value in experiment [2] (DAPLE-depleted HeLa cells) is given as “No significant drop in FRET”. Moreover, the “FRET efficiency after Wnt5a stimulation” value in experiment [2] (control HeLa cells, plasma membrane, within 5 min, 0.36±0.08 before stimulation) is recorded as 0.17±0.06. For the same molecule, the “FRET efficiency after ligand stimulation” value in the experiment on FZD7R-Gαi3 complexes was 0.25±0.06.
